Laboratory results taken from US20090226456A1 (published 2009).

B1: Full-length human TR6 (without Fc) (receptor)
chain: VAETPTYPWRDAETGERLVCAQCPPGTFVQRPCRRDSPTTCGPCPPRHYTQFWNYLERCRYCNVLCGEREEEARACHATHNRACRCRTGFFAHAGFCLEHASCPPGAGVIAPGTPSQNTQCQPCPPGTFSASSSSSEQCQPHRNCTALGLALNVPGSSSHDTLCTSCTGFPLSTRVPGAEECERAVIDFVAFQDISIKRLQRLLQALEAPEGWGPTPRAGRAALQLKLRRRLTELLGAQDGALLVRLLQALRVARMPGLERSVRERFLPVH
notes: also called TR6-non-Fc; TR6 non-Fc
B2: Soluble human FLAG-FasL (synthesized at HGS) (ligand)
chain: DYKDDDDKQIGHPSPPPEKKELRKVAHLTGKSNSRSMPLEWEDTYGIVLLSGVKYKKGGLVINETGLYFVYSKVYFRGQSCNNLPLSHKVYMRNSKYPQDLVMMEGKMMSYCTTGQMWARSSYLGAVFNLTSADHLYVNVSELSLVNFEESQTFFGLYKL
notes: Called trimerized in the BIAcore experiment; cross-linked with anti-FLAG antibody in the cell assays; also called FasL-Flag; trimerized FLAG-FasL
B3: TR2-Fc (extracellular domain of TR2, aa 1-192, fused to the Fc domain of human IgG1) (Fc fusion)
chain: LPSCKEDEYPVGSECCPKCSPGYRVKEACGELTGTVCEPCPPGTYIAHLNGLSKCLQCQMCDPAMGLRASRNCSRTENAVCGCSPGHFCIVQDGDHCAACRAYATSSPGQRVQKGGTESQDTLCQNCPPGTFSPNGTLEECQHQTKCSWLVTKA
notes: The range is as cloned; also called HveA-Fc; HveA; not shown: Fc domain of human IgG1
B4: BCMA on transiently transfected cells (receptor, UniProt Q02223 1-184, looked up)
chain: MLQMAGQCSQNEYFDSLLHACIPCQLRCSSNTPPLTCQRYCNASVTNSVKGTNAILWTCLGLSLIISLAVFVLMFLLRKINSEPLKDEFKNTGSGLLGMANIDLEKSRTGDEIILPRGLEYTVEECTCEDCIKSKPKVDSDHCFPLPAMEEGATILVTTKTNDYCKSLPAALSATEIEKSISAR
notes: whole, on cells

How the values were obtained:
[1] = target: T1, Fas receptor on Jurkat or HT-29 cells (human, UniProt P25445 26-335); test: cell-based or functional assay
T1 sequence (looked up): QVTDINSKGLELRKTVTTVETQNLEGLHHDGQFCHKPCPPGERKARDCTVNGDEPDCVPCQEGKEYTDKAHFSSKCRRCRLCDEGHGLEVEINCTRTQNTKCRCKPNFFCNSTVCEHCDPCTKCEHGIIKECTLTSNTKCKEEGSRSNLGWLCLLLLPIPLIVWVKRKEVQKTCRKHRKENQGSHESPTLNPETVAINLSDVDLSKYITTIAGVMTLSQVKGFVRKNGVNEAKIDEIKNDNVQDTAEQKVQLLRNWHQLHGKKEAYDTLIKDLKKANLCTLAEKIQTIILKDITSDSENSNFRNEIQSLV

[2] = target: T2, full length TNF-gamma-beta on the cell surface of transfected cells (human, UniProt O95150 1-251); test: flow cytometry competition; competitor DR3-Fc
T2 construct: whole, on cells; also called TNF-gamma-beta expressing cells
T2 sequence (looked up): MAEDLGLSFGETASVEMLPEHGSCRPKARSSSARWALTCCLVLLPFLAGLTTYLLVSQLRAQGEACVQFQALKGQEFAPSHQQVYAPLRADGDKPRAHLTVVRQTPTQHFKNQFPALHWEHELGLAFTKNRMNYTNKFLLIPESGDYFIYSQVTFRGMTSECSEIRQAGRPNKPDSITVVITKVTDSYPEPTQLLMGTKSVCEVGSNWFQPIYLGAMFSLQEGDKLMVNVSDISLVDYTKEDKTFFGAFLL
Description: (§1) One million cells, in 0.1 ml of FACS buffer (PBS, 0.1% BSA, 0.1% NaN₃), were incubated with 0.1-1 microgram of protein or antibody at RT for 15 min. The cells were washed with 3 ml of FACS buffer, reacted with biotinylated primary antibody, and stained with PE-conjugated secondary antibody at RT for 15 min. Cells were then washed again, resuspended in 0.5 microgram/ml of propidium iodide, and live cells were gated and analyzed on a FACScan using the CellQuest software (BD Biosciences).

[3] = target: B1; test: BIAcore, FasL-Flag soluble
[4] = target: T3, TNFR6 alpha-Fc (full length TNFR-6 alpha, amino acids 1-300 of SEQ ID NO:2, fused to an Fc domain) (human, UniProt O95407 30-300); test: BIAcore, TR6-Fc immobilized, trimerized FLAG-FasL soluble
T3 construct: Cloned as aa 1-300; disulfide-linked dimer; also called TR6-Fc; TNFR6-Fc; not shown: Fc domain of human IgG1
T3 sequence: B1 chain

[5] = target: T2, full length TNF-gamma-beta on the cell …; test: flow cytometry, receptor-Fc on HEK293F cells expressing full length TNF-gamma-beta
Description: as §1

[6] = target: T4, FLAG-tagged soluble TNF-gamma-beta (aa 72-251) (human, UniProt O95150 72-251); test: flow cytometry on transiently transfected cells
T4 construct: also called FLAG-TNF-gamma-beta; FLAG-TL1β
T4 sequence: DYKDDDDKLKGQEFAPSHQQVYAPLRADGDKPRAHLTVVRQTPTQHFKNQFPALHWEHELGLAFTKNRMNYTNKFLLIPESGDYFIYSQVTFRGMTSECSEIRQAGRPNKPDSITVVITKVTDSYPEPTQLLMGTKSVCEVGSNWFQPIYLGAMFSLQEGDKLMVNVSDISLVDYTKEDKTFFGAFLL
Description: as §1

“sFas ligand (Alexis Corporation) with a FLAG epitope tag at its N-terminus (from UniProt P48023 103-281)” showed a % Cells undergoing apoptosis (annexin/propidium iodide FACS, Jurkat cells), FasL (20 ng) alone (% cells undergoing apoptosis) [1] of 8.87 and a Jurkat cell viability (ALOMAR blue, OD 570 nm-630 nm) (% decrease in cell viability) [1] of 50.

For B1, the “molar ratio of TR6 to DR3-Fc at which no DR3-Fc binding was detected” value [2] was 2 molar ratio (2:1).

With B2 the Kd [3] was 17 nM, the Kd [4] was 4.6 nM and the “Jurkat apoptosis (annexin staining, FACS)” value [1] was ~7 fold.

B3: no binding [5].

B4: no binding [6].
